Kd data for one molecule are collected here from publication PMC3917317 (Cell, 2013).

The star is where a group is joined. FITC = O=C1OC2(c3ccc(O)cc3Oc3cc(O)ccc32)c2ccc(NC(=S)*)cc21; βAla = NCCC(=O)O

Test [1] addresses T1, His-EcGlpG C104A+H254A (inactive mutant) (Escherichia coli, UniProt P09391 1-276, C104A | H254A).
T1 sequence (looked up): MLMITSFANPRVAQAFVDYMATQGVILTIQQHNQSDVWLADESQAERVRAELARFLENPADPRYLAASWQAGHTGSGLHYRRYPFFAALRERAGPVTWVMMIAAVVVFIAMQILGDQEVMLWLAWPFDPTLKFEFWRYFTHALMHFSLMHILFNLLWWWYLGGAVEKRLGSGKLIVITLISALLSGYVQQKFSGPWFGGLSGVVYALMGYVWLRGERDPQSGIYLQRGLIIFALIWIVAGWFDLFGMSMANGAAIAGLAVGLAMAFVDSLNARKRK
The test is described as follows: pull-down.

Test [2] addresses HA-EcGlpG S201A+H254A (inactive mutant) (Escherichia coli, UniProt P09391 1-276, S201A | H254A). Kind of test: SEC.

B1: FITC-TatA (Providencia stuartii TatA residues 1-33 of 97) (peptide)
chain: {FITC-βAla}-MESTIATAAFGSPWQLIIIALLIILIFGTKKLR-NH2
SMILES: CC[C@H](C)[C@H](NC(=O)[C@H](CC(C)C)NC(=O)[C@@H](NC(=O)[C@@H](NC(=O)[C@H](CC(C)C)NC(=O)[C@H](CC(C)C)NC(=O)[C@H](C)NC(=O)[C@@H](NC(=O)[C@@H](NC(=O)[C@@H](NC(=O)[C@H](CC(C)C)NC(=O)[C@H](CCC(N)=O)NC(=O)[C@H](Cc1c[nH]c2ccccc12)NC(=O)[C@@H]1CCCN1C(=O)[C@H](CO)NC(=O)CNC(=O)[C@H](Cc1ccccc1)NC(=O)[C@H](C)NC(=O)[C@H](C)NC(=O)[C@@H](NC(=O)[C@H](C)NC(=O)[C@@H](NC(=O)[C@@H](NC(=O)[C@H](CO)NC(=O)[C@H](CCC(=O)O)NC(=O)[C@H](CCSC)NC(=O)CCNC(=S)Nc1ccc2c(c1)C(=O)OC21c2ccc(O)cc2Oc2cc(O)ccc21)[C@@H](C)O)[C@@H](C)CC)[C@@H](C)O)[C@@H](C)CC)[C@@H](C)CC)[C@@H](C)CC)[C@@H](C)CC)[C@@H](C)CC)C(=O)N[C@@H](Cc1ccccc1)C(=O)NCC(=O)N[C@H](C(=O)N[C@@H](CCCCN)C(=O)N[C@@H](CCCCN)C(=O)N[C@@H](CC(C)C)C(=O)N[C@@H](CCCNC(=N)N)C(N)=O)[C@@H](C)O
On to B1, for which the figures for the Kd in test [1] and in test [2] were at least 1 mM and 191 ± 29.4 µM, respectively.

For orientation: Kd means a measure of binding affinity in units of concentration. The low end stands for higher affinity, the high end for lower affinity.
